Data reported in publication PMC3578147.

Molecular target: Rev-independent (RI) HIV-1 Gag-CFP (HIV-1)
Experiment: FRET or BRET

Row | Substance | FRET efficiency
1 | HIV.Rev-YFP (HIV-1 Rev fused to YFP) (from UniProt P04618 1-116) (natural protein) | 16.4%
2 | YFP-HIV.NC (HIV-1 NC protein fused to YFP) (domain or fragment) | 7.8%
